In assay [1] the target is T1, fc-coupled human RGM A light chain, fragment 0 (47-168) (human).
T1 construct: also called hRGM A light chain - fc; hRGMA 47-168/HuIgGFc
In words: direct ELISA on hRGMA 47-168/HuIgGFc. Background: An ELISA detects its analyte on a solid surface through an enzyme-linked reagent.

Assay [2] deals with T2, fc-coupled full length human RGM A (47-422) (human).
T2 construct: the legends call the protein fc-coupled full length hRGM A fragment (47-422, counted on hRGM A); also called full length fc-conjugated hRGM A; Human RGM A-fc
In words: competition ELISA: fc-conjugated full length hRGM A (0.5 µg/ml) binding to coated BMP-2. On the procedure:
After the incubation, unbound BMP-2 was removed in 3 separate wash steps with PBS containing 0.02% Tween 20. Blocking of the BMP-2 coated plates was done by adding 2001-JI per well of a 3% Bovine serum albumin (BSA), PBS, Tween 20(0.02%) blocking solution. After incubation for 1 h at 37° C., the blocking solution was removed and RGM A fragments or full length protein, conjugated with a human fc tag, with or without antibody, was added. In some experiments antibodies were preincubated with the fc-conjugated hRGM A proteins for 1 h at room temperature. The BMP-2 coated plates were incubated with hRGM A with or without antibodies for 1 hat 37° C. After 3 wash steps with PBS-Tween 20 (0.02%), plates were incubated with a Biotin-labeled anti-human fc antibody (1 mg/ml, diluted 1:200 in PBS containing 0.6% BSA, 0.02% Tween 20), Jackson ImmunoResearch catalog no: 709-065-149, for 1 h at 37° C. Unbound antibody was removed by 3 wash steps with PBS-Tween 20 (0.02%). […] Unbound Peroxidase-complex was removed in 3 subsequent wash steps (PBS-Tween 20 (0.02%) before adding the Peroxidase substrate (Immuno Pure TMB, Pierce#34021). The substrate reaction was stopped 1-30 min after its addition to the wells by 2.5 M H2SO4. Plates were analysed (OD determination) at a wave length of 450 nm using an Anthos photometer. […]

Assay [3] addresses T3, recombinant purified human RGM A (human, UniProt Q96B86 48-424, limits assumed).
T3 construct: Bought recombinant protein (R&D Systems); also called hRGM A; hRGMA
T3 sequence: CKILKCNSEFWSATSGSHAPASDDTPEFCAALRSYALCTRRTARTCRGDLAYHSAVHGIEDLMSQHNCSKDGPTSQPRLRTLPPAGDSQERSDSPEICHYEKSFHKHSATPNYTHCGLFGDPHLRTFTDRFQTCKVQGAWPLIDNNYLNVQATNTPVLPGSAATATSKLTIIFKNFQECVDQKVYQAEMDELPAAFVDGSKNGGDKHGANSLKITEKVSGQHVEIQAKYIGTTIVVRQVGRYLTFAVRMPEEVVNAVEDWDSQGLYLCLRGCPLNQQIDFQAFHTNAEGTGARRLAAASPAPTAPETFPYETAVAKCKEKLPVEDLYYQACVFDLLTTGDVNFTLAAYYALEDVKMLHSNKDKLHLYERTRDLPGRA
The assay can be described thus: direct ELISA, plate coated with hRGM A at 2 µg/ml, biotinylated antibody in 1:5 dilution steps, streptavidin-HRP, OD 450 nm. As for the experimental part:
(i) Direct binding ELISA plates were coated with hRGM A (R&D) at a concentration of 2 μg/ml in Carbonate buffer. The wells were then blocked with 2% Blocking solution (Bio-Rad) for 1 hour at room temperature. Biotinylated antibodies were serially diluted with a 1:5 dilution factor in 0.1% BSNPBS down the plate and incubated for 1 hour at room temperature. The detection reagent was a 1:10,000 dilution of streptavidin-HRP in 0.1% BSNPBS. Detection was done with a TMB reagent, which was stopped with 2N H₂SO₄ and OD was read at 450 nm.
(§1) FAGS was carried out as described in section (ii).

Assay [4] has as its target T4, rat RGM A overexpressed on cells (BAF3 cells) (rat).
T4 construct: also called BAF3 cells overexpressing ratRGM A
T4 chain: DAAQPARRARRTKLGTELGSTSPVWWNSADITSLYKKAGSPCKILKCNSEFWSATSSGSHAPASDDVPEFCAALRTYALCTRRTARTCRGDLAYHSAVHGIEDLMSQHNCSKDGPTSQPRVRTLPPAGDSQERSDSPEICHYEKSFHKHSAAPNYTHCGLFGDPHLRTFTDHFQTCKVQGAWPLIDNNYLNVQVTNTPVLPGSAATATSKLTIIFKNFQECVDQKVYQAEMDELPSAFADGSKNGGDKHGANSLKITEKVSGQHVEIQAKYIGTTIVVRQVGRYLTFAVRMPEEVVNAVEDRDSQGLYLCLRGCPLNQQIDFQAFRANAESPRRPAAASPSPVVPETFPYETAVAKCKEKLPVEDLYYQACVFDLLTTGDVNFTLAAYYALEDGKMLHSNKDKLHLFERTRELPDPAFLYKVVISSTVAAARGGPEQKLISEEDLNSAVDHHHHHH
The assay can be described thus: FACS on BAF3-ratRGMA stable cell line, anti-rat IgG PE. On the procedure:
(ii) FACS analysis. Stable transfectants of HEK293 cells overexpressing hRGM A or BAF3 cells overexpressing ratRGM A were subjected to staining with unlabelled 5F9 or 8D1 MABs for more than 15 minutes at 4° in 0.1% BSNPBS buffer. Detection was carried out with a mouse anti-rat IgG PE antibody.
as §1

The target of the next assay is T5, recombinant rat RGM A (rat).
T5 construct: also called rRatRGMA
T5 chain: T4 chain
In words: direct ELISA on rRatRGMA.

T2 sequence (chain, as listed by the source): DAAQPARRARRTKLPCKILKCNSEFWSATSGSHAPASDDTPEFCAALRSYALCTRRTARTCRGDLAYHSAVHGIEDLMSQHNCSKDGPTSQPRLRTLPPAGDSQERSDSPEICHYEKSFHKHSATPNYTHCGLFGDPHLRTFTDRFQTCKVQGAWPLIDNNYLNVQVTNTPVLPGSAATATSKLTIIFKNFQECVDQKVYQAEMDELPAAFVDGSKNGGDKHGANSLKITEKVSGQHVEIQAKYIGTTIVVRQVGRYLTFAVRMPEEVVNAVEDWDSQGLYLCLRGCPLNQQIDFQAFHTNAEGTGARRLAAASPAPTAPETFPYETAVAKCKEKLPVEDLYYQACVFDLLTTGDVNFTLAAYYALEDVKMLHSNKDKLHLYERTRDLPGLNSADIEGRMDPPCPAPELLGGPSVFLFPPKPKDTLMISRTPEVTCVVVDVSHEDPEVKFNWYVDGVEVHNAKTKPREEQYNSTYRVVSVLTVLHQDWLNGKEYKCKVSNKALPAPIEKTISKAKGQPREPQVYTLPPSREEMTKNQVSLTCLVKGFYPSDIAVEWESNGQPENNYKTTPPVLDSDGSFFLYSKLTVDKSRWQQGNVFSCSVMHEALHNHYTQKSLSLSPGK
T1 sequence (chain, as listed by the source): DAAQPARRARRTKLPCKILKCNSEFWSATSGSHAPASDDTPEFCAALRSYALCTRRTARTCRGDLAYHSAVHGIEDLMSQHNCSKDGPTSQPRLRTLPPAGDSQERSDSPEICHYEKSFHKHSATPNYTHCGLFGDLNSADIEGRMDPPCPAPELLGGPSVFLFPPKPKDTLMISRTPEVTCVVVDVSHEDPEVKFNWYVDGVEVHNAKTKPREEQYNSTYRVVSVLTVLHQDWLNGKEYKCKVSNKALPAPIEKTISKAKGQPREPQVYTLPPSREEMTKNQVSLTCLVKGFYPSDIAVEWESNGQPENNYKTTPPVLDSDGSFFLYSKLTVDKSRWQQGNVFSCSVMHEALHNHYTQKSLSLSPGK

B1: rat anti-human RGM A monoclonal antibody 8D1 (antibody, V domains shown)
VH: EVQLQQSGPELVKPGTSVKMSCKTSGYTFTSYVMHWVKQKPGQGLEWIGYIIPYNDNTKYNEKFKGKATLTSDKSSSTAYMELSSLTSEDSAVYYCARRNEYYGSSFFDYWGQGTTLTVSS
VL: DIQMTQSPASLSASLEEIVTITCQASQDIDNYLAWYHQKPGKSPRLLIYGATNLADGVPSRFSGSRSGTQFSLKINRLQIEDLGIYYCLQGYIPPRTFGGGTKLELKR
notes: Rat hybridoma antibody; also called ML68-8D1; MAB 8D1
A word on the EC50 (read off the curve): it is the concentration that produces a half-maximal response. In the case of B1, the binding result in assay [1] is “binds”; in assay [2] it was “binds”; in assay [4] it was “no binding”; in the assay with recombinant rat RGM A it was “no binding”. The “EC50 (read off the curve)” value in assay [3] was around 200 ng/mL.

The values are drawn from patent publication US20150183871A1 (AbbVie / Abbott, published 2015).
